According to US12679870 (US Dept. of Health and Human Services, dated 2026):

Target: T1, HMPV F v3BΔ12 (V84C/A249C, A140C/A147C, substitution of HMPV F positions 89-112 to GSGGSG) (human metapneumovirus, B2 strain …)
T1 construct: That entry starts at K20, has no tags, and differs from the v3-B backbone at positions 185 and 323; also called HMPV F v3B with the L0.1 F1/F2 linker
T1 chain: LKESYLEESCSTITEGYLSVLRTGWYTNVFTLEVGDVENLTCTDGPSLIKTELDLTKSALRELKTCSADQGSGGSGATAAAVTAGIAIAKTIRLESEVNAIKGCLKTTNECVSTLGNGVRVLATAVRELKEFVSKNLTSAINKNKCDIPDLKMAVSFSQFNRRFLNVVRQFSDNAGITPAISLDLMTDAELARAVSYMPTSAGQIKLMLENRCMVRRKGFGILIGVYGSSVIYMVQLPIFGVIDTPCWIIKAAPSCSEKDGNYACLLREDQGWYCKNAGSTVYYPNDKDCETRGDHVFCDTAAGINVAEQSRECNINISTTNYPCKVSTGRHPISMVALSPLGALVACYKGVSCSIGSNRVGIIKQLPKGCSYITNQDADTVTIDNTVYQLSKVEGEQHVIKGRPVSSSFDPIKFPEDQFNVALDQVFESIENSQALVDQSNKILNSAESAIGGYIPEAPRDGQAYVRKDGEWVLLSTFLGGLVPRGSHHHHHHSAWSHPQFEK
Test: antigenic assessment of F1/F2 linker variants, FIG. 13

B1: MPE8 antibody (Fab, V domains shown)
VH: EVQLVESGGGLVKPGGSLRLSCAASGFTFSSYSMNWVRQAPGKGLEWVSSISASSSYSDYADSAKGRFTISRDNAKTSLFLQMNSLRAEDTAIYFCARARATGYSSITPYFDIWGQGTLVTVSS
VL: QSVVTQPPSVSGAPGQRVTISCTGSSSNIGAGYDVHWYQQLPGTAPKLLIYDNNNRPSGVPDRFSASKSGTSASLAITGLQAEDEADYYCQSYDRSLSGVFGTGTKVTVL
notes: The text calls it an antibody; also called prefusion specific antibody MPE8
B1 was tested, and the “fold increase in binding compared to v1B” value was greater than 10 fold.
